Laboratory results taken from article doi:10.1101/2023.09.23.559074, “Direct ionic stress sensing and mitigation by the transcription factor NFAT5” (bioRxiv, 2023).

B1: GFP-CTD (superfolder GFP fused to the C-terminal domain of NFAT5, a.a. 544-1531) (domain or fragment, human, UniProt O94916 544-1531, looked up)
chain: DPAAAGALNVNVKKEISSPARPCSFEEAMKAMKTTGCNLDKVNIIPNALMTPLIPSSMIKSEDVTPMEVTAEKRSSTIFKTTKSVGSTQQTLENISNIAGNGSFSSPSSSHLPSENEKQQQIQPKAYNPETLTTIQTQDISQPGTFPAVSASSQLPNSDALLQQATQFQTRETQSREILQSDGTVVNLSQLTEASQQQQQSPLQEQAQTLQQQISSNIFPSPNSVSQLQNTIQQLQAGSFTGSTASGSSGSVDLVQQVLEAQQQLSSVLFSAPDGNENVQEQLSADIFQQVSQIQSGVSPGMFSSTEPTVHTRPDNLLPGRAESVHPQSENTLSNQQQQQQQQQQVMESSAAMVMEMQQSICQAAAQIQSELFPSTASANGNLQQSPVYQQTSHMMSALSTNEDMQMQCELFSSPPAVSGNETSTTTTQQVATPGTTMFQTSSSGDGEETGTQAKQIQNSVFQTMVQMQHSGDNQPQVNLFSSTKSMMSVQNSGTQQQGNGLFQQGNEMMSLQSGNFLQQSSHSQAQLFHPQNPIADAQNLSQETQGSLFHSPNPIVHSQTSTTSSEQMQPPMFHSQSTIAVLQGSSVPQDQQSTNIFLSQSPMNNLQTNTVAQEAFFAAPNSISPLQSTSNSEQQAAFQQQAPISHIQTPMLSQEQAQPPQQGLFQPQVALGSLPPNPMPQSQQGTMFQSQHSIVAMQSNSPSQEQQQQQQQQQQQQQQQQQSILFSNQNTMATMASPKQPPPNMIFNPNQNPMANQEQQNQSIFHQQSNMAPMNQEQQPMQFQSQSTVSSLQNPGPTQSESSQTPLFHSSPQIQLVQGSPSSQEQQVTLFLSPASMSALQTSINQQDMQQSPLYSPQNNMPGIQGATSSPQPQATLFHNTAGGTMNQLQNSPGSSQQTSGMFLFGIQNNCSQLLTSGPATLPDQLMAISQPGQPQNEGQPPVTTLLSQQMPENSPLASSINTNQNIEKIDLLVSLQNQGNNLTGSF
notes: NFAT5 (TonEBP), human, 1531 a.a. protein; C-terminal domain (CTD), a.a; 544-1531; The methods for the bacterial construct (pET-28a) say only 'NFAT5 CTD'; also called GFP-NFAT5 CTD; NFAT5 GFP-CTD; not shown: sfGFP, N-terminal, kept
B2: GFP-PLD (superfolder GFP fused to the prion-like domain of NFAT5, a.a. 999-1454) (domain or fragment, human, UniProt O94916 999-1454, looked up)
chain: QIQNSVFQTMVQMQHSGDNQPQVNLFSSTKSMMSVQNSGTQQQGNGLFQQGNEMMSLQSGNFLQQSSHSQAQLFHPQNPIADAQNLSQETQGSLFHSPNPIVHSQTSTTSSEQMQPPMFHSQSTIAVLQGSSVPQDQQSTNIFLSQSPMNNLQTNTVAQEAFFAAPNSISPLQSTSNSEQQAAFQQQAPISHIQTPMLSQEQAQPPQQGLFQPQVALGSLPPNPMPQSQQGTMFQSQHSIVAMQSNSPSQEQQQQQQQQQQQQQQQQQSILFSNQNTMATMASPKQPPPNMIFNPNQNPMANQEQQNQSIFHQQSNMAPMNQEQQPMQFQSQSTVSSLQNPGPTQSESSQTPLFHSSPQIQLVQGSPSSQEQQVTLFLSPASMSALQTSINQQDMQQSPLYSPQNNMPGIQGATSSPQPQATLFHNTAGGTMNQLQNSPGSSQQTSGMFLFGIQNN
notes: NFAT5 (TonEBP), human, 1531 a.a. protein; prion-like domain (PLD), a.a; 999-1454; The methods for the bacterial construct say only 'NFAT5 PLD'; also called GFP-NFAT5 PLD; not shown: sfGFP, N-terminal, kept
B3: untagged NFAT5 CTD (CTD protein lacking the GFP tag) (domain or fragment, human, UniProt O94916 544-1531, looked up)
chain: B1 chain
notes: NFAT5 (TonEBP), human, 1531 a.a. protein; C-terminal domain (CTD), a.a; 544-1531; source: E. coli BL21 (DE3) pLysS, purified from inclusion bodies (8 M urea extraction, Superdex 200)
B4: untagged NFAT5 PLD (PLD protein lacking the GFP tag) (domain or fragment, human, UniProt O94916 999-1454, looked up)
chain: B2 chain
notes: NFAT5 (TonEBP), human, 1531 a.a. protein; prion-like domain (PLD), a.a; 999-1454; source: E. coli BL21 (DE3) pLysS, purified from inclusion bodies (8 M urea extraction, Superdex 200)

Target: the molecule itself
Assay: in vitro phase separation (droplet) assay, fluorescence or brightfield microscopy; purified protein in droplet buffer (20 mM Na-HEPES pH 7.4, 1 mM TCEP) with 5% dextran, NaCl (or other salts) added to the indicated osmolarity; 10 min at room temperature; self-association into droplets

Protein | binding result
B1 | binds
B2 | binds
B3 | binds
B4 | binds
